Biological target: human P-TEFb (Cdk9 (1-345)•Cyclin T1 (1-266)) (human) (UniProt P50750)
Test: SDS-PAGE of dissolved crystals

Chain of UniProt P50750 (P50750 1-345, chain 1 of 2): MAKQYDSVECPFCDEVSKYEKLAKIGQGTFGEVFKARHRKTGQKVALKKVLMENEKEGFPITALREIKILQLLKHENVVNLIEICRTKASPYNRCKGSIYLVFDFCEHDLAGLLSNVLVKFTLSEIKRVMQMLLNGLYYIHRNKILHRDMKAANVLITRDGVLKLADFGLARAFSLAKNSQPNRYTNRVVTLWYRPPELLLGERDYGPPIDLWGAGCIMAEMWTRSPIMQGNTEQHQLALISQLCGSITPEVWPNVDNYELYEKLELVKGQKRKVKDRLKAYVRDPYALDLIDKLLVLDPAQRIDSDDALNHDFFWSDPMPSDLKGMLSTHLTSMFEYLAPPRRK
Chain of UniProt P50750 (O60563 1-266, chain 2 of 2, further chain): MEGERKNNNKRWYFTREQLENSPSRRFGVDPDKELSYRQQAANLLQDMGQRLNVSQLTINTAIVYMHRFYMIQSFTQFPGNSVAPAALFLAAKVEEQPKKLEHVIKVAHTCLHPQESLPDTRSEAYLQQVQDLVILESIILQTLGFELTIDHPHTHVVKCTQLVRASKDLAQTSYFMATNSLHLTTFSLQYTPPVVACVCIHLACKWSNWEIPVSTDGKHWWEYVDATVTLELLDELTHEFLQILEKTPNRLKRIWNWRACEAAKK

HIV-1 Tat (1-86) (from UniProt P04608 1-86) (natural protein)
stoichiometry N: 1

From publication PMC2885016
